± gives the uncertainty stated by the source.
Test: protein stability index of a GFP-peptide fusion (yeast GPS) (PSI 1-4); higher = more stable; sorted into four equal gates, so the index is relative within each strain
Settings: ubr1∆
Summary of the method: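 Plasmids in a pooled yeast library fused tiled 17-residue yeast protein peptides downstream of GFP and also expressed Cherry. Mid-log cultures grown without leucine were sorted into four equal gates by GFP/Cherry fluorescence ratio. Each gate's plasmids were PCR-amplified and Illumina-sequenced, and reads were matched to strains by barcodes. The protein stability index is derived by multiplying each gate's read frequency by its gate number and summing the results.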
For ENYDDTELRQLFQENDD [DSN1], the protein stability index was 2.55 ± 0.13.
EPDLESQISKAEMEADS [SMC4] showed a protein stability index of 2.55 ± 0.17.
For EPDREKIKLLTQATSED [RPC19], the protein stability index was 3.28 ± 0.11.
For EPELRVLSTEEILNIFK [RPO21], the protein stability index was 3.55 ± 0.23.
Work on EPIRFLPNQFPLKIHRT [SWI1] yielded a protein stability index of 1.73 ± 0.07.
EPLAIALSMGKSSAFVI [ARP7] gave a protein stability index of 1.77 ± 0.089.
EPPAGVALPPGSNYNPY [CYT1] gave a protein stability index of 3.15 ± 0.047.
EQEDIIEKTESVDKKVD [SWI3] showed a protein stability index of 2.99 ± 0.094.
In the case of EQENMRKVREQEELKKR [MED2], the protein stability index is reported as 3.56 ± 0.11.
Sequence EQKWLIYDKKDHKYVCT [SRB8] has a protein stability index of 3.23 ± 0.22.
In the case of EQLSPQDVLQMLGRAGR [BRR2], the protein stability index is reported as 3.36 ± 0.12.
EQQLFEIFAFGNIKDLP [CSN9] gave a protein stability index of 2.86 ± 0.035.
For EQTTGGNNKDLKNTMQY [RPB4], the protein stability index was 3.18 ± 0.19.
Sequence EQWLRQFEVSDDEKNDK [SNF2] has a protein stability index of 3.09 ± 0.046.
Work on ERGQKVKNVKNSDLEFN [ARP9] yielded a protein stability index of 1.25 ± 0.072.
In the case of ERIVVSYEYYNIKHKHT [SMC2], the protein stability index is reported as 1.87 ± 0.049.
ERLAKVNEMNDQLAQEL [NNF1] showed a protein stability index of 2.85 ± 0.18.
Work on ERNAAYQKEYETAERNI [RPL7A] yielded a protein stability index of 2.62 ± 0.18.
With ERRVLLSAPLSKELRAQ [RPL26B] the protein stability index was 2.79 ± 0.043.
In the case of ERSELLRLFNAPDSEYL [SNF2], the protein stability index is reported as 2.77 ± 0.045.
For ERSSKRLAKKPSMKKIK [SIR3], the protein stability index was 3.06 ± 0.079.
ERVQSDENKDDELVKLL [SRP68] gave a protein stability index of 2.96 ± 0.23.
Sequence ESDETTTDNNNSGNSNS [RPT1] has a protein stability index of 3.13 ± 0.051.
Work on ESEYREFESELKNVEET [ESC2] yielded a protein stability index of 3.31 ± 0.15.
Work on ESFKGLQPFWFRVNNAS [ECM29] yielded a protein stability index of 2.09 ± 0.15.
ESINNVVDQLWSEISNE [RPN2] showed a protein stability index of 2.63 ± 0.041.
Work on ESKDSIQDLIVKLKQQK [SMC3] yielded a protein stability index of 3.35 ± 0.15.
In the case of ESKMRQQEAKYRNNEPA [YDL088C/ASM4], the protein stability index is reported as 2.88 ± 0.059.
For ESLKKSPIFEVLSDDAK [ARP9], the protein stability index was 3.32 ± 0.058.
ESMDFLVLADAFDIELS [YCS4] gave a protein stability index of 2.64 ± 0.039.
In the case of ESPNYCNALIHIKFSAG [SRB4], the protein stability index is reported as 2.04 ± 0.034.
In the case of ESQPKQTGTRRNSKLLN [MCD1], the protein stability index is reported as 3.12 ± 0.076.
Sequence ESSNEAKKTIQNPLNKS [SIR4] has a protein stability index of 3.11 ± 0.05.
ESVIEQIVKYARKGLTP [RPS13] showed a protein stability index of 2.81 ± 0.044.
With ETEFPPFREFLQVLIDQ [ECM29] the protein stability index was 3.27 ± 0.12.
Work on ETISAIEHPMTSAIEVL [RPN1] yielded a protein stability index of 1.8 ± 0.044.
In the case of ETITTKRVPNPNFLGNC [SWP82], the protein stability index is reported as 2.32 ± 0.048.
In the case of ETLEHNPVALEQKLVDL [BRR2], the protein stability index is reported as 2.35 ± 0.11.
ETLSIFTNVPLNLEQVT [YJL039C/NUP192] showed a protein stability index of 2.42 ± 0.044.
Sequence ETSSDGSKSDGSAATSG [RPN1] has a protein stability index of 3.3 ± 0.036.
Sequence ETTLGEMAEKIDFTLLN [PRP8] has a protein stability index of 2.71 ± 0.082.
In the case of ETVPDNVKTSVSQLYRI [RPO31], the protein stability index is reported as 3.2 ± 0.069.
EVFSRPEWMILTCLPVP [RPO21] showed a protein stability index of 1.67 ± 0.063.
Sequence EVILVDPQHKAIRRDAR [RPL15A] has a protein stability index of 2.97 ± 0.17.
In the case of EVINKEIENATKDIFPL [RPS1A], the protein stability index is reported as 3.16 ± 0.082.
For EVNKSELYLTAELSEIW [SIR3], the protein stability index was 3.24 ± 0.21.
For EVTFKNANIFSSVKCFG [FAS1], the protein stability index was 3.06 ± 0.052.
EWQDIIHQREQELQIKR [CSE2] gave a protein stability index of 3.13 ± 0.23.
EWYLSHLCSGILSSVNR [SRB8] gave a protein stability index of 1.63 ± 0.044.
EYALPKTYNKLHYCVSC [RPS26A] showed a protein stability index of 1.41 ± 0.04.
With EYDTPALFFDPSLNPIP [PRP8] the protein stability index was 2.69 ± 0.036.
EYKLRSLTLSFIRHVAK [ECM29] showed a protein stability index of 2.81 ± 0.046.
In the case of EYYVMMDFANLWVFQAF [SRB8], the protein stability index is reported as 2.64 ± 0.057.
Work on FAKEHNATVNLAMEAIL [YJR042W/NUP85] yielded a protein stability index of 2.63 ± 0.092.
Work on FARLSRLLSLWEVFQMA [RPC82] yielded a protein stability index of 2.08 ± 0.051.
FASIPVSNSISRLGEEN [SNU114] gave a protein stability index of 2.48 ± 0.059.
In the case of FCPGEIVGKSNVLVTMP [YMR129W/POM152], the protein stability index is reported as 2.51 ± 0.085.
In the case of FDHNDKKLSINSAARNI [PRE7], the protein stability index is reported as 2.83 ± 0.065.
FDKVEVQVRSVMDPITS [DIS3] showed a protein stability index of 3.04 ± 0.064.
Work on FDLVRNIVKQNEGIDLD [SMC2] yielded a protein stability index of 3.45 ± 0.1.
Work on FDQAGKKVSRRNARATR [RPL13A] yielded a protein stability index of 2.34 ± 0.067.
FDSLRNFIVHSPMLKRI [GRR1] showed a protein stability index of 2.64 ± 0.076.
Sequence FEEDSDLALPPPPPPPP [PRP8] has a protein stability index of 3.23 ± 0.062.
For FEIIFPPTDTNVEESVS [POP5], the protein stability index was 3.09 ± 0.12.
For FEKKELQEKFLNQIATL [IRR1], the protein stability index was 1.04 ± 0.062.
FEKVGSHLYKARLDGHD [RPN14] showed a protein stability index of 3.31 ± 0.14.
Work on FELVSDLSYIEFLFESL [ECM29] yielded a protein stability index of 2.87 ± 0.049.
With FESLPLKSAENSGKQQY [SWP82] the protein stability index was 3.2 ± 0.056.
In the case of FFDGSASSTPIPVLGKP [YOR098C/NUP1], the protein stability index is reported as 2.67 ± 0.026.
FFKPLDYITEAVFKIVL [SNU114] showed a protein stability index of 1.88 ± 0.035.
For FFYLRISKKLQFSYLSS [PCI8], the protein stability index was 1.33 ± 0.044.
For FGFSSSGTAATGAASNQ [YOR098C/NUP1], the protein stability index was 3.31 ± 0.07.
For FGKLLQAYQFLNTFGSK [ITC1], the protein stability index was 1.31 ± 0.094.
Sequence FGNIQKVVNFWLLHNGF [RPO21] has a protein stability index of 1.41 ± 0.073.
Work on FGNSLICEDPETAKKIT [SMC2] yielded a protein stability index of 2.91 ± 0.075.
For FGPIKVELPTKETVEIG [FAS1], the protein stability index was 3.02 ± 0.066.
Sequence FGVPNSSKNETSKPVFS [YLR335W/NUP2] has a protein stability index of 3.15 ± 0.068.
Work on FHKYRLKRNSWPKTRGV [RPL2A] yielded a protein stability index of 2.31 ± 0.091.
Sequence FHNAVFNSFRRFKSQFL [QCR8] has a protein stability index of 1.54 ± 0.046.
FHSEISPDSTVNRSVVV [YAR002W/NUP60] gave a protein stability index of 2.16 ± 0.059.
Work on FICTTFRTDMLQVADKF [SMC3] yielded a protein stability index of 1.67 ± 0.075.
With FILELEHKTPELISFKE [YIL149C/MLP2] the protein stability index was 3.29 ± 0.086.
In the case of FIPNKQLNCVIDRVNGI [RPN7], the protein stability index is reported as 3.08 ± 0.18.
Work on FIVSGTASDQLFGMCES [PUP3] yielded a protein stability index of 2.53 ± 0.039.
FKGTDFVHSVKKFLRVR [SRB4] showed a protein stability index of 2.87 ± 0.054.
FKKLNSKNMSKSPSLTA [YMR153W/NUP53] gave a protein stability index of 2.13 ± 0.071.
With FKMNEIVPLHSPFLMGH [SEC65] the protein stability index was 2.62 ± 0.057.
FKNMGNTCYLNATLQAL [UBP6] showed a protein stability index of 1.83 ± 0.071.
Sequence FKQIKSADCELLGIDAT [RPO31] has a protein stability index of 2.08 ± 0.053.
In the case of FKSLIDEDLLDTQTFSV [YGL172W/NUP49], the protein stability index is reported as 3.76 ± 0.26.
Work on FKSPIDNSESHPFIPLL [RRP6] yielded a protein stability index of 1.82 ± 0.052.
FKSVLPIVLLNTLRKCY [UBP6] gave a protein stability index of 1.18 ± 0.12.
Work on FLDSQRVWAEYATKRQE [PRP8] yielded a protein stability index of 2.07 ± 0.083.
FLKEVLSDLSSPVQDWN [YML103C/NUP188] gave a protein stability index of 2.96 ± 0.068.
FLKLANGGKFSKSNLIH [RGR1] gave a protein stability index of 2.79 ± 0.059.
Work on FLMGIFNSVVNLSRYPK [MTR3] yielded a protein stability index of 2.32 ± 0.13.
FLNTPNNNINENELFND [SSN2] showed a protein stability index of 2.88 ± 0.055.
FLQRVRVWEYRQKNVIH [RPL15A] gave a protein stability index of 2.02 ± 0.19.
Work on FLSLLNLATKGMVKLNE [REC8] yielded a protein stability index of 1.58 ± 0.045.
Sequence FLVLYDVKTAEEASQLI [NUT1] has a protein stability index of 3.01 ± 0.047.
